Results on eleven molecules are retold here after US20080305997A1 (UNIVERSITY OF NORTH CAROLINA AT CHARLOTTE, published 2008).

The chains are these.
B1: P11, C-terminal peptide of Salp15 (amino acids 95-114) (peptide)
peptide: GPNGQTCAEKNKCVGHIPGC
notes: Chemically synthesized (GenScript); also called P11k
B2: P9, overlapping synthetic peptide of Salp15 (amino acids 81-100) (peptide)
peptide: DVNVTLNLPEDTPCGPNGQT
notes: Chemically synthesized (GenScript); coated on the plate
B3: P8, overlapping synthetic peptide of Salp15 (amino acids 71-90) (peptide)
peptide: NCTFLCKHGNDVNVTLNLPE
notes: Chemically synthesized (GenScript)
B4: P10, overlapping synthetic peptide of Salp15 (amino acids 91-110) (peptide)
peptide: DTPCGPNGQTCAEKNKCVGH
notes: as for B2
B5: P2, overlapping synthetic peptide of Salp15 (amino acids 11-30) (peptide)
peptide: STADKDTKKNNVQLRFPNYI
notes: as for B2
B6: P4, overlapping synthetic peptide of Salp15 (amino acids 31-50) (peptide)
peptide: SNHQKLALKLLKICKDSKSS
notes: as for B2
B7: P5, overlapping synthetic peptide of Salp15 (amino acids 41-60) (peptide)
peptide: LKICKDSKSSHNSLSSRSSD
notes: as for B2
B8: P3, overlapping synthetic peptide of Salp15 (amino acids 21-40) (peptide)
peptide: NVQLRFPNYISNHQKLALKL
notes: as for B2
B9: P7, overlapping synthetic peptide of Salp15 (amino acids 61-80) (peptide)
peptide: VINDKYVDFKNCTFLCKHGN
notes: as for B2
B10: P1, overlapping synthetic peptide of Salp15 (amino acids 1-20) (peptide)
peptide: NESGPTKADASTADKDTKKN
notes: as for B2
B11: P6, overlapping synthetic peptide of Salp15 (amino acids 51-70) (peptide)
peptide: HNSLSSRSSDVINDKYVDFK
notes: as for B2

The first experiment concerns the target T1, sCD4-HRP (Research Diagnostics Inc.) (UniProt P01730 26-396, limits assumed).
T1 construct: extracellular domain
Nature of the experiment: microtiter assay, increasing concentrations of plate-bound P11, sCD4-HRP, non-linear curve fit.
For B1, binding was put at a Kd of 50 nM.

A further experiment deals with T1, sCD4-HRP (Research Diagnostics Inc.). Nature of the experiment: microtiter assay, plate-bound peptide, sCD4-HRP.
On to B2, for which the binding result is “no binding (tested: 0.5 µg peptide coated)”.
For B3, the binding result was “no binding (tested: 0.5 µg peptide coated)”.
In the case of B4, the binding result was “no binding (tested: 0.5 µg peptide coated)”.
For B5, the binding result was “no binding (tested: 0.5 µg peptide coated)”.
Take B6: the binding result is given as “no binding (tested: 0.5 µg peptide coated)”.
On the same count and under the same terms, the value for B7 was “no binding (tested: 0.5 µg peptide coated)”.
In the case of B8, the binding result was “no binding (tested: 0.5 µg peptide coated)”.
As for B9, the binding result is reported as “no binding (tested: 0.5 µg peptide coated)”.
Consider B10, for which the binding result is “no binding (tested: 0.5 µg peptide coated)”.
Still for that read-out and setting: in the case of B11 it was “no binding (tested: 0.5 µg peptide coated)”.

Another experiment shares this target. The experiment is described as follows: microtiter competition; free P11 added to sCD4-HRP on plate-bound P11.
Experimental: Purified sCD4 was coated overnight at 4° C. at the indicated concentrations in 0.1M sodium carbonate buffer (pH 9.5) in 96 well plates. Equimolar amounts of lysozyme were used as a non-specific control. […] The reaction was stopped by adding TMB stop solution (KPL). […] The wells were washed and blocked prior to incubation with sCD4-HRP (Research Diagnostics Inc., Flanders, N.J., U.S.A.).
B1 gave an IC50 of 1250 nM. This lies in the single-digit micromolar range.

For orientation: Kd means a measure of binding affinity in units of concentration. Read a low Kd as higher affinity. One may read the IC50 as the concentration that gives 50% inhibition. Higher therefore signals a need for much substance.
